The source of these data is patent US20240309360A1, “TRANS-ACTIVATORS AND METHODS AND USE THEREOF” (THE GOVERNING COUNCIL OF THE UNIVERSITY OF TORONTO, priority 2021, published 2024).

For test [1], the system named is EGFP reporter (7×TetO array, basal CMV promoter) in HEK293T reporter cell line. Description: Arrayed recruitment assay, PYL1 fusions individually recruited to reporter via ABI1-dCas9 with ABA. Format: cell-based, human. As to conditions: PYL1 fusion, ABA 48 hours, flow cytometry. From the text: Treatment of cells with abscisic acid (ABA) induces an interaction between ABI1 and PYL1, thereby recruiting the potential transcriptional activator to a specific genomic locus defined by the guide RNA (gRNA). As a reporter, a HEK293T cell line that contains a stably integrated construct with a 7×TetO array and a basal CMV promoter driving the expression of EGFP was used (Gao et al., 2016). A monoclonal cell line that expresses ABI1-dCas9 and a single gRNA targeting TetO was generated by lentiviral infection.
Arrayed recruitment assays. Reporter cells stably co-expressing ABI-dCas9 and TetO gRNA were seeded either on 48-well or 96-well plates (Sarstedt) to reach 50-70% confluency on the day of transfection. 150 ng of each construct to be tested was transfected with polyethylenimine (PEI) at a ratio of 0.6 μl reagent. The day after transfection, recruitment was induced by treatment with ABA (100 μM). […] Inhibitors were dissolved in DMSO to a stock concentration of 10 mM. The final concentrations used were 100 nM for flavopiridol, 300 nM for JQ1, 1 μM for A-485, 2.5 μM for CX-4945 and 3 μM for AZ191. All inhibitors were a kind gift from the Structural Genomics Consortium (SGC). 48 hours after induction, cells were dissociated and resuspended in flow buffer using a liquid handing robot (TECAN) and analyzed by LSR Fortessa (BD). Cells were gated on high EBFP2 and RFP as a measure of gRNA and transfection control, respectively. Flow cytometry data was analyzed using FlowJo (v10).
(In flow cytometry, cells or beads pass a laser one at a time.)

The test system of test [2] is NIH3T3 cells gene expression. Description: RNA sequencing of NIH-3T3 cells with doxycycline-inducible EGFP-tagged constructs. Format: cell-based, mouse. The following applies: GFP-tagged. From the text: The SRF/TCF pathway, which is regulated by MAP kinase signaling, regulates the expression of immediate-early genes (Gualdrini et al., 2016), whereas the actin-Rho signaling dependent SRF/MRTF pathway targets genes involved in cell motility and adhesion (Miralles et al., 2003). To test if SRF-C3orf62 can regulate target genes of both pathways, stable doxycycline-inducible NIH3T3 cell lines stably expressing SRF, C3orf62, SRF-C3orf62 and Nanoluc fused to GFP were generated. Transgene expression was induced with doxycycline for 24 hours and changes in gene expression were analyzed by RNA-seq. […] These signatures are consistent with the oncogenic nature of the SRF-C3orf62 fusion. […] In contrast, many well-characterized immediate-early target genes of SRF/TCF such as FOS, EGR1, or EGR2 were not affected by ectopic SRF-C3orf62 expression (FIG. 5H).
RNA sequencing and analysis. NIH-3T3 cells with stable integrations of SRF, C3orf62, SRF-C3orf62 or Nanoluc tagged at the C-terminus with EGFP were induced with 1 μg/mL doxycycline for 24 hours. […] Reads were aligned to the Gencode mouse primary assembly (GRCm39) with STAR aligner v2.7.8a. […] Changes in gene expression compared to cells expressing Nanoluc-EGFP were quantified using the edgeR package (Robinson et al., 2010).

Test [3] concerns serum response element reporter in NIH3T3 cells. Description: SRF reporter assay (SRE-Firefly luciferase). The test is classed as cell-based, mouse. The following applies: NIH3T3 fibroblasts, 3×FLAG tagged constructs, no cofactors. On the procedure:
SRF functions together with either ternary complex factors (TCFs; e.g. ELK1) or myocardin-related transcription factors (MRTFs; e.g. MAL) to regulate target gene expression (Buchwalter et al., 2004; Olson and Nordheim, 2010). […] To test this further, the activity of different constructs was assayed in NIH3T3 fibroblasts using a luciferase-based serum response element reporter (Vartiainen et al., 2007).
SRF reporter assay. 30,000 NIH-3T3 cells on 24-well plates were transfected with 8 ng SRF reporter (p3DA.luc), 20 ng reference reporter (pcDNA3.1-Nanoluc-3×FLAG-V5) and 50 ng 3×FLAG tagged constructs (Addgene #87063). Transfection was carried out using Lipofectamine 3000 reagent (Thermo Fisher Scientific, L3000001) according to the manufacturer's protocols. Luciferase constructs were a kind gift from Dr. Maria Vartiainen (University of Helsinki). Cells were maintained in low-serum media (0.5% BCS) for 18 hours and stimulated for 7 hours (15% BCS), after which luciferase activity was measured. Firefly luciferase was normalized to Renilla luciferase activity using data from four independent transfections.
In general terms: Reporter assays use an easily measured gene product as a stand-in for the process of interest.

B1: CBX6: CBX-C domain of CBX6 (protein, listed as Homo sapiens)
chain: GASSEPEAGDWRPEMSPCSNVVVTDVTSNLLTVTIKEFCNPEDFEKVAAGVAGAAGGGGSIGASK
Consider B1, for which, in test [1], the “activation of the EGFP reporter when individually tested” value (shortened to “activation of the EGFP reporter”) is recorded as “activated the reporter weakly”.

B2: SPDYC: Spy1/RINGO family protein (protein, listed as Homo sapiens)
chain: MLWAIPELGSPCPISISYEMSDSQDPTTSPVVTTQVELGGCSRQGGGNGFLRFRQHQEVQAFLSLLEDSFVQEFLSKDPCFQISDKYLLAMVLVYFQRAHLKLSEYTHSSLFLALYLANDMEEDLEGPKCEIFPWALGKDWCLRVGKFLHQRDKLWARMGFRAVVSRQCCEEVMAKEPFHWAWTRDRRPHHGGVQRVCPQVPVRLPRGPGLSPPHCSPCGLPQHCSSHLLKPVSSKCPSLTSECHRPPSQNYLSRVKNAWGGDFLIVLPPQMQLEPGTYSLRIFPKPPARPGH
In the case of B2, the “activation of the EGFP reporter” value in test [1] is “inactive in the recruitment assay”.

B3: RYBP: YAF2_RYBP domain of RYBP (protein, listed as Homo sapiens)
chain: IQSANATTKTSETNHTSRPRLKNVDRSTAQQLAVTVGNVTVIITDFKEKTRSSSTSSSTVTSSAGSEQQNQS
Regarding B3, in test [1], the “activation of the EGFP reporter” value is reported as “robustly activated the reporter”.

B4: SRF: Serum Response Factor (protein)
chain: MLPTQAGAAAALGRGSALGGSLNRTPTGRPGGGGGTRGANGGRVPGNGAGLGPGRLEREAAAAAATTPAPTAGALYSGSEGDSESGEEEELGAERRGLKRSLSEMEIGMVVGGPEASAAATGGYGPVSGAVSGAKPGKKTRGRVKIKMEFIDNKLRRYTTFSKRKTGIMKKAYELSTLTGTQVLLLVASETGHVYTFATRKLQPMITSETGKALIQTCLNSPDSPPRSDPTTDQRMSATGFEETDLTYQVSESDSSGETKDTLKPAFTVTNLPGTTSTIQTAPSTSTTMQVSSGPSFPITNYLAPVSASVSPSAVSSANGTVLKSTGSGPVSSGGLMQLPTSFTLMPGGAVAQQVPVQAIQVHQAPQQASPSRDSSTDLTQTSSSGTVTLPATIMTSSVPTTVGGHMMYPSPHAVMYAPTSGLGDGSLTVLNAFSQAPSTMQVSHSQVQEPGGVPQVFLTASSGTVQIPVSAVQLHQMAVIGQQAGSSSNLTELQVVNLDTAHSTKSE
modifications: left off: things letters cannot carry; small tags and cut ends
notes: Serum Response Factor
Take B4: the “effects on the transcriptome compared to Nanoluc” value in test [2] is given as “very limited or no effects on the transcriptome”. Also, the “activation of serum response element luciferase reporter” value in test [3] is “did not activate the reporter”.

B5: C3orf62-Cterm: C-terminal fragment of C3orf62 fused to SRF in the fusion (protein)
chain: AAVPCAPENENPAFATNHAPVNAKPHALCPERKPLTSKENVLMHSSILAPERESWRTAGEGENWRKENLRKDMERDLKADSNMPLNNSSQEVTKDLLDMIDHTSIRTIEELAGKIEFENELNHMCGHCQDSPFKEEAWALLMDKSPQKATDADPGSLKQAFDDHNIVETVLDLEEDYNVMTSFKYQIE
modifications: left off: things letters cannot carry; small tags and cut ends
notes: C-terminal fragment of C3orf62 fused to SRF in the fusion
For B5, the “activation of the EGFP reporter” value in test [1] was “strongly activated the GFP reporter”.

B6: C3orf62: full-length C3orf62 protein (protein)
chain: MHYIKTWSLLGEMSEKLRRCRKELTAAIDRAFEGVSYSQECTGQQRLELSAAPLSFSLPVHRLLCRRHPLAACSSAAPFAAVPCAPENENPAFATNHAPVNAKPHALCPERKPLTSKENVLMHSSILAPERESWRTAGEGENWRKENLRKDMERDLKADSNMPLNNSSQEVTKDLLDMIDHTSIRTIEELAGKIEFENELNHMCGHCQDSPFKEEAWALLMDKSPQKATDADPGSLKQAFDDHNIVETVLDLEEDYNVMTSFKYQIE
modifications: left off: things letters cannot carry; small tags and cut ends
notes: full-length C3orf62 protein
As to B6, in test [2], the “effects on the transcriptome compared to Nanoluc” value is given as “very limited or no effects on the transcriptome”. For the same molecule, the “activation of serum response element luciferase reporter” value in test [3] is “did not activate the reporter”.
